{"source": "paper PMC6994475", "assay_in_all_cases": "EMSA", "settings_in_all_cases": "EMSA: 10 nM 6-FAM oligo, 50 mM HEPES pH 7.5, 250 mM NaCl, 1 mM DTT, 2.5 mM EDTA, 10% glycerol, on ice 10 min, 8% native PAGE; sumo-rA3G after heavy RNase A/T1 …", "key": {"[1]": {"test_system": "rA3G rM12 (Macaca mulatta)"}, "[2]": {"test_system": "rA3G rM14 (Macaca mulatta)"}, "[3]": {"test_system": "rA3G E/Q (Macaca mulatta)"}, "[4]": {"test_system": "rA3G R24T (Macaca mulatta)"}, "[5]": {"test_system": "rA3G rM10 (Macaca mulatta)"}, "[6]": {"test_system": "rA3G rM15 (Macaca mulatta)"}, "[7]": {"test_system": "rA3G rM13 (Macaca mulatta)"}, "[8]": {"test_system": "rA3G rM9 (Macaca mulatta)"}, "[9]": {"test_system": "rA3G rM11 (Macaca mulatta)"}, "[10]": {"test_system": "rA3G WT (parental construct, R8 K128D) (Macaca mulatta)"}}, "note": "pKd: −log10 of the molar value.", "data": [{"substance": "50 nt ssRNA", "values": [{"measurement": "pKd", "setting": "[1]", "value": 7.28}, {"measurement": "pKd", "setting": "[2]", "value": 7.82}, {"measurement": "pKd", "setting": "[3]", "value": 7.72}, {"measurement": "pKd", "setting": "[4]", "value": 7.68}, {"measurement": "pKd", "setting": "[5]", "value": 7.62}, {"measurement": "pKd", "setting": "[6]", "value": 7.68}, {"measurement": "pKd", "setting": "[7]", "value": 7.37}, {"measurement": "pKd", "setting": "[8]", "value": 7.70}, {"measurement": "pKd", "setting": "[9]", "value": 7.68}, {"measurement": "pKd", "setting": "[10]", "value": 7.66}]}, {"substance": "50 nt ssDNA", "values": [{"measurement": "pKd", "setting": "[1]", "value": 6.73}, {"measurement": "pKd", "setting": "[2]", "value": 6.99}, {"measurement": "pKd", "setting": "[3]", "value": 8.00}, {"measurement": "pKd", "setting": "[4]", "value": 7.29}, {"measurement": "pKd", "setting": "[5]", "value": 7.28}, {"measurement": "pKd", "setting": "[6]", "value": 7.15}, {"measurement": "pKd", "setting": "[7]", "value": 6.81}, {"measurement": "pKd", "setting": "[8]", "value": 7.13}, {"measurement": "pKd", "setting": "[9]", "value": 7.05}, {"measurement": "pKd", "setting": "[10]", "value": 7.62}]}]}
